Key:
[1] = system: T-cells (IFN-secreting splenocytes); assay: Immunogenicity and cross-reactivity, IFN ELISpot on splenocytes of immunized HHD DR3 mice; type: in vivo; conditions: for immunogenicity: immune response after challenge with the vaccination peptide or the human corresponding peptide (IFN ELISpot): 100 μg peptide + 150 μg helper peptide (DR3) + IFA s.c. days 0 and 14, splenocytes day 21; for immune response against the corresponding human peptide (cross-reactivity): same immunisation
Experimental: Concanavalin A (ConA) was used as a positive control.
The antigenic peptide of the invention BIRC5-B1 (SEQ ID NO: 32) and the corresponding human peptide BIRC5-H (SEQ ID NO: 593) were tested in distinct groups of male and female HHD DR3 mice expressing human HLA-A2 and HLA-DR3 MHC and lacking the murine H-2 class I and class II MHCs. Groups of 5 mice (male and female) were subcutaneously injected on days 0 and 14 with 100 μg of BIRC5-B1 or BIRC5-H, 150 μg of helper peptide (DR3) and IFA. On day 21, the mice were euthanized and splenocytes were prepared and stimulated in vitro with BIRC5-B1 or the human peptide BIRC5-H to assess their capacity to secrete IFN—as assessed by ELISpot. ConA was used as a positive control.
The antigenic peptide of the invention FOXM1-B2 (SEQ ID NO: 220) and the corresponding human peptide FOXM1-H2 (SEQ ID NO: 674) were tested in distinct groups of male and female HHD DR3 mice expressing human HLA-A2 and HLA-DR3 MHC and lacking the murine H-2 class I and class II MHCs. Groups of 5 mice (male and female) were subcutaneously injected on days 0 and 14 with 100 μg of FOXM1-B2 or FOXM1-H2, 150 μg of helper peptide (DR3) and IFA. On day 21, the mice were euthanized and splenocytes were prepared and stimulated in vitro with FOXM1-B2 or the human corresponding peptide FOXM1-H2 to assess their capacity to secrete IFN—as assessed by ELISpot. ConA was used as a positive control

[2] = biological target: T1, HLA-A*0201 (Homo sapiens, UniProt P04439, D140Y/D185E/D98H/E176V/E277Q/G131W/G231S/I119V/I121R/I166T/I218V/L300P/L318F/N151K/N90K/P208A/P217A/Q86G/Q94H/R138H/R169H/T345S); assay: Affinity of the peptide to T2 cell line: HLA-A2 labelling by FACS, relative to HIV pol 589-597; type: binding; conditions: for binding affinity to HLA-A*0201 compared with the other peptides tested (in words): Examples 2, 7, 8, 9; for binding to HLA-A*0201 as % of maximum HIV pol 589-597 binding activity: Example 8
T1 construct: the human tumoral cell T2 which expresses the HLA-A*0201 molecule; endogenous in cells; host or cells: T2 cells (human, TAP1/2 negative)
Text: The experimental protocol is similar to the one that was validated for peptides presented by the HLA-A*0201 (Tourdot et al., A general strategy to enhance immunogenicity of low-affinity HLA-A2.1-associated peptides: implication in the identification of cryptic tumor epitopes. Eur J Immunol. 2000 December; 30(12):3411-21). Affinity measurement of the peptides is achieved with the human tumoral cell T2 which expresses the HLA-A*0201 molecule, but which is TAP1/2 negative and incapable of presenting endogenous peptides.
T2 cells (2.10^5 cells per well) are incubated with decreasing concentrations of peptides from 100 μM to 1.5625 μM in a AIMV medium supplemented with 100 ng/μl of human β2m at 37° C. for 16 hours. Cells are then washed two times and marked with the anti-HLA-A2 antibody coupled to PE (clone BB7.2, BD Pharmagen).
The analysis is achieved by FACS (Guava Easy Cyte).
A2. Solubilisation of Peptides
Each peptide is solubilized by taking into account the amino acid composition. […] Other peptides are resuspended in water or PBS pH7.4.
The experimental protocol, materials and methods correspond to those outlined in Example 2, with the only difference that the above mentioned (poly)peptides were used.

[3] = system: T cell responses (IFNγ-producing splenocytes); assay: ELISPOT-IFNγ assay on splenocytes of vaccinated HLA-A2 humanized mice; type: in vivo, HLA-A2 (CB6F1-Tg(HLA-A*0201/H2-Kb)A*0201) mice; conditions: 100 μg vacc-pAg + 150 μg T13L + IFA s.c. d0 and d14; splenocytes d21 restimulated with vacc-pAg 10 μM
Text: Briefly, HLA-A2 humanized mice (HLA-A2 (CB6F1-Tg(HLA-A*0201/H2-Kb)A*0201) were assigned randomly (based on mouse sex and age) to experimental groups, wherein each group was immunized with a specific vaccination peptide (vacc-pAg) combined to a common helper peptide (h-pAg T13L; sequence: […]; SEQ ID NO: 860; Bhasin M, Singh H, Raghava GP (2003) MHCBN: a comprehensive database of MHC binding and non-binding peptides. Bioinformatics 19: 665-666) (as outlined in Table 5 below). The vacc-pAg were compared in couples (group 1 vs. group 2, group 1 vs. group 3; group 1 vs. group 4; group 5 vs. group 6; group 7 vs. group 8; group 9 vs. group 10). Thereby, both native and optimized versions of a single peptide were compared in each wave.
The peptides were provided as follows: • vacc-pAg: BIRC5-H, BIRC5-B1, BIRC5-B2, BIRC5-B3, FOXM1-H2, FOXM1-B2, EZH2-H2, EZH2-B2, 1L13RA2-H and IL13RA2-B; all produced and provided at a 4 mg/ml (4 mM) concentration; • h-pAg: T13L; Eurogentec batch 1713334 re-suspended in pure distilled water at a 10 mg/mL concentration
The animals were immunized on day 0 (d0) with a prime injection, and on d14 with a boost injection. Each mouse was injected s.c. at tail base with 100 μL of an oil-based emulsion that contained: • 100 μg of vacc-pAg (25 μL of 4 mg/mL stock per mouse); • 150 μg of h-pAg (15 μL of 10 mg/mL stock per mouse); • 10 μL of PBS to reach a total volume of 50 μL (per mouse); • Incomplete Freund's Adjuvant (IFA) added at 1:1 (v:v) ratio (50 μL per mouse).
A separate emulsion was prepared for each vacc-pAg, as follows: IFA reagent was added to the vacc-pAg/h-pAg/PBS mixture in a 15 mL tube and mixed on vortex for repeated cycles of 1 min until forming a thick emulsion.
Seven days after the boost injection (i.e. on d21), the animals were euthanized and the spleen was harvested. Splenocytes were prepared by mechanical disruption of the organ followed by 70 μm-filtering and Ficoll density gradient purification.
The splenocytes were immediately used in an ELISPOT-IFNγ assay (Table 6). Experimental conditions were repeated in triplicates, using 2*10^5 total splenocytes per well, and were cultured in presence of vacc-pAg (10 μM), lonomycin (0.1 μM) plus PMA (1 μM) or medium-only to assess for their capacity to secrete IFNγ. The commercial ELISPOT-IFNγ kit (Diaclone Kit Mujrine IFNγ ELISpot) was used following the manufacturer's instructions, and the assay was performed after about 19 h of incubation.
Spots were counted on a CTL ELISpot reader. Data plotting and statistical analysis were performed with the Prism-5 software (GraphPad Software Inc.).
The data were then normalized as a number of specific spots (the average counts obtained in the ‘medium only’ condition being subtracted) per 50*10^3 total T cells.
The individual average values (obtained from the triplicates) were next used to plot the group average values. As the functional capacity of T cells might vary from individual to individual, the data were also expressed as the percentage of the ionomycin plus PMA response per individual (see FIG. 8).

[4] = system: T-cells (IFN-secreting splenocytes); assay: Immunogenicity and cross-reactivity, confirmation in HHD DR1 mice; type: in vivo; conditions: HHD DR3 and HHD DR1 mice, summary of Examples 4 to 6

“WLPFGFILI (listed as Homo sapiens) [IL13RA2-H, reference compound]” was tested, and the “immunogenicity: immune response after challenge with the vaccination peptide or the human corresponding peptide (IFN ELISpot)” value (“immunogenicity: immune response” below) [1] was “does not induce an immune response”.
For “VLEELLWFI (listed as Homo sapiens) [TYMS H, reference compound]”, the “Concentration of peptide that induces 20% of HLA-A2 expression” value ([2]; Example 2, Table 4) was 4.1 µM.
For FLVEDETVI [EZH2-B], the “Concentration of peptide that induces 20% of HLA-A2 expression” value ([2]; Example 2, Table 4) was 8.8 µM.
For YLLSAALTI [CHI3L1 B3], the “Concentration of peptide that induces 20% of HLA-A2 expression” value ([2]; Example 2, Table 4) was 8.6 µM.
FLPFGFILV [IL13RA2-B] was tested, and the “Concentration of peptide that induces 20% of HLA-A2 expression” value ([2]; Example 2, Table 4) was 2.9 µM, the “Concentration of peptide that induces 20% of HLA-A2 expression” value ([2]; Example 8, Table 8) was 2.9 µM and the “binding affinity to HLA-A*0201 compared with the other peptides tested (in words)” value [2] was “considerably higher binding affinity”. The “T cell responses in the ELISPOT-IFNγ assay compared to the respective human reference epitope” value [3] was “improved T cell responses”.
YTLGEFLYI [BIRC5-B2] was tested, and the “Concentration of peptide that induces 20% of HLA-A2 expression” value ([2]; Example 2, Table 4) was 14.7 µM and the “T cell responses in the ELISPOT-IFNγ assay compared to the respective human reference epitope” value [3] was “improved T cell responses”.
For “LTLGEFLKL (listed as Homo sapiens) [BIRC5-H, reference compound]”, the “Concentration of peptide that induces 20% of HLA-A2 expression” value ([2]; Example 2, Table 4) was 53.0 µM, the “Concentration of peptide that induces 20% of HLA-A2 expression” value ([2]; Example 9, Table 9) was 95.9 µM and the “immunogenicity: immune response” value [1] was “does not induce any immune response”.
LMDLSTTEV [FOXM1-B2] was tested, and the “Concentration of peptide that induces 20% of HLA-A2 expression” value ([2]; Example 2, Table 4) was 6.7 µM, the “T cell responses in the ELISPOT-IFNγ assay compared to the respective human reference epitope” value [3] was “improved T cell responses” and the “immunogenicity: immune response” value [1] was “strongly immunogenic”. For the same substance, the “immune response against the corresponding human peptide (cross-reactivity)” value [1] was “able to drive an effective immune response against human corresponding peptide” and the immune responses induced [4] was “induced strong immune responses”.
SMEELLWFV [TYMS B] was tested, and the “Concentration of peptide that induces 20% of HLA-A2 expression” value ([2]; Example 2, Table 4) was 1.1 µM.
RLSSYLVEI [FOXM1-B] was tested, and the “Concentration of peptide that induces 20% of HLA-A2 expression” value ([2]; Example 2, Table 4) was 46.7 µM.
With LMLGEFLKL [2M, reference compound] the “Concentration of peptide that induces 20% of HLA-A2 expression” value ([2]; Example 9, Table 9) was 2.87 µM.
“1A9V: comparative peptide (Eguchi et al., 2006): SEQ ID NO: 691 with tryptophan 1 substituted by alanine, isoleucine 9 by valine (ALPFGFILV; comparative peptide) [reference compound]” was tested, and the “Concentration of peptide that induces 20% of HLA-A2 expression” value ([2]; Example 8, Table 8) was 36.5 µM and the “binding affinity to HLA-A*0201 compared with the other peptides tested (in words)” value [2] was “lowest affinity of the peptides tested”.
In the case of “SMFRVLIGT (listed as Homo sapiens) [EZH2-H2, reference compound]”, the “Concentration of peptide that induces 20% of HLA-A2 expression” value ([2]; Example 2, Table 4) is reported as 39.2 µM.
With AVFRVLIPV [EZH2-B2] the “Concentration of peptide that induces 20% of HLA-A2 expression” value ([2]; Example 2, Table 4) was 8.3 µM and the “T cell responses in the ELISPOT-IFNγ assay compared to the respective human reference epitope” value [3] was “improved T cell responses”.
For “LMDLSTTPL (listed as Homo sapiens) [FOXM1-H2, reference compound]”, the “Concentration of peptide that induces 20% of HLA-A2 expression” value ([2]; Example 2, Table 4) was 12.6 µM and the “immunogenicity: immune response” value [1] was “does not induce immune response”.
GLLGEFLQI [BIRC5-B3] was tested, and the “Concentration of peptide that induces 20% of HLA-A2 expression” value ([2]; Example 2, Table 4) was 22.9 µM and the “T cell responses in the ELISPOT-IFNγ assay compared to the respective human reference epitope” value [3] was “improved T cell responses”.
For “FMVEDETVL (listed as Homo sapiens) [EZH2-H, reference compound]”, the “Concentration of peptide that induces 20% of HLA-A2 expression” value ([2]; Example 2, Table 4) was 13.3 µM.
For “FLDSLGFST (listed as Homo sapiens) [TYMS H2, reference compound]”, the “Concentration of peptide that induces 20% of HLA-A2 expression” value ([2]; Example 2, Table 4) was 9.5 µM.
For FLPFGFILPV [IL13RA2-L], the “Concentration of peptide that induces 20% of HLA-A2 expression” value ([2]; Example 2, Table 4) was 3.2 µM, the “Concentration of peptide that induces 20% of HLA-A2 expression” value ([2]; Example 8, Table 8) was 3.2 µM and the “binding affinity to HLA-A*0201 compared with the other peptides tested (in words)” value [2] was “considerably higher binding affinity”. For the same substance, the “binding to HLA-A*0201 as % of maximum HIV pol 589-597 binding activity” value (“binding to HLA-A*0201 as %” for short) ([2]; at 6.25 μM) was 43%, the “binding to HLA-A*0201 as %” value ([2]; at 25 μM) was 96% and the “binding to HLA-A*0201 as %” value ([2]; at 100 μM) was 69%. For the same substance, the “immunogenicity: immune response” value [1] was “strongly immunogenic”, the “immune response against the corresponding human peptide (cross-reactivity)” value [1] was “able to drive an effective immune response against the corresponding human peptide” and the immune responses induced [4] was “induced strong immune responses”.
FLDSLGFSL [TYMS B2] was tested, and the “Concentration of peptide that induces 20% of HLA-A2 expression” value ([2]; Example 2, Table 4) was 2.7 µM.
For LLLSAALSV [CHI3L1 B], the “Concentration of peptide that induces 20% of HLA-A2 expression” value ([2]; Example 2, Table 4) was 3.6 µM.
For ILDEAYVRV [EGFR-B], the “Concentration of peptide that induces 20% of HLA-A2 expression” value ([2]; Example 2, Table 4) was 3.1 µM.
For “RVSSYLVPI (listed as Homo sapiens) [FOXM1-H, reference compound]”, the “Concentration of peptide that induces 20% of HLA-A2 expression” value ([2]; Example 2, Table 4) was 37.6 µM.

Reference: patent US12016910B2, “Antigenic peptides for prevention and treatment of cancer” (ENTEROME S.A., priority 2018, dated 2024)
